Source: publication doi:10.1101/2022.11.08.515461 (bioRxiv, 2022)

B1: Pac1-SNAP (natural protein)
chain: MTNWQQQLPLTDTQKNELDKSVLRYLNWNYKQTVRHEHAQDYESVRHAIVTLSGFLLQESVDRQEFISNNDTSNESMVDIDELLLPKKWNSIVRLQKKIIELEQNTETLVSQIKDLNTQVSELAQFKPTTSNGTSAHNVLKWIPRNLPSCLINVESSVTSVKLHPNLPIVFVATDHGKLYAFDLFNYTIPLASLQSHTKAITSMDVLFTNYTNSSKKNYLVIVTASKDLQIHVFKWVSEECKFQQIRSLLGHEHIVSAVKIWQKNNDVHIASCSRDQTVKIWDFHNGWSLKTFQPHSQWVRSIDVLGDYIISGSHDTTLRLTHWPSGNGLSVGTGHEFPIEKVKFIHFIEDSPEIRFRTPSTDRYKNWGMQYCVSASRDRTIKIWEIPLPTLMAHRAPIPNPTDSNFRCVLTLKGHLSWVRDISIRGQYLFSCADDKSVRCWDLNTGQCLHVWEKLHTGFVNCLDLDVDFDSNVTPRQMMVTGGLDCKSNVFMR
modifications: JF646-SNAP-tag ligand on the SNAP tag (fluorescent labelling)
B2: human LIS1-SNAP (from pFastBac:8His-ZZ-TEV-LIS1-SNAPf) (natural protein)
chain: MVLSQRQRDELNRAIADYLRSNGYEEAYSVFKKEAELDVNEELDKKYAGLLEKKWTSVIRLQKKVMELESKLNEAKEEFTSGGPLGQKRDPKEWIPRPPEKYALSGHRSPVTRVIFHPVFSVMVSASEDATIKVWDYETGDFERTLKGHTDSVQDISFDHSGKLLASCSADMTIKLWDFQGFECIRTMHGHDHNVSSVAIMPNGDHIVSASRDKTIKMWEVQTGYCVKTFTGHREWVRMVRPNQDGTLIASCSNDQTVRVWVVATKECKAELREHEHVVECISWAPESSYSSISEATGSETKKSGKPGPFLLSGSRDKTIKMWDVSTGMCLMTLVGHDNWVRGVLFHSGGKFILSCADDKTLRVWDYKNKRCMKTLNAHEHFVTSLDFHKTAPYVVTGSVDQTVKVWECR

Key:
mass photometry = target: the molecule itself; test: mass photometry
[1] = target: yeast dynein_(MOTOR)^MT-U (microtubule-unbound mutant of the motor domain) (budding yeast | T. thermophilus) (UniProt P34945); test: mass photometry
[2] = target: yeast dynein_(MOTOR) (wild-type; ZZ-TEV-dynein331-HALO) (budding yeast) (UniProt P36022); test: mass photometry
[3] = target: human dynein_(MOTOR)^MT-U (microtubule-unbound mutant of the motor domain) (human | T. thermophilus); test: cryo-EM structure
[4] = target: human dynein_(MOTOR) (wild-type motor domain, residues 1458-4646) (human, UniProt Q14204 1458-4646); test: mass photometry
[5] = target: human dynein_(MOTOR)^MT-U (microtubule-unbound mutant of the motor domain) (human | T. thermophilus); test: mass photometry
[6] = target: human dynein_(MOTOR)^MT-B (microtubule-bound mutant of the motor domain) (human | T. thermophilus); test: mass photometry

Sequence of yeast dynein_(MOTOR) (wild-type; ZZ-TEV-dynein331-HALO) (budding yeast) (P36022 whole entry, the tested form may be a part): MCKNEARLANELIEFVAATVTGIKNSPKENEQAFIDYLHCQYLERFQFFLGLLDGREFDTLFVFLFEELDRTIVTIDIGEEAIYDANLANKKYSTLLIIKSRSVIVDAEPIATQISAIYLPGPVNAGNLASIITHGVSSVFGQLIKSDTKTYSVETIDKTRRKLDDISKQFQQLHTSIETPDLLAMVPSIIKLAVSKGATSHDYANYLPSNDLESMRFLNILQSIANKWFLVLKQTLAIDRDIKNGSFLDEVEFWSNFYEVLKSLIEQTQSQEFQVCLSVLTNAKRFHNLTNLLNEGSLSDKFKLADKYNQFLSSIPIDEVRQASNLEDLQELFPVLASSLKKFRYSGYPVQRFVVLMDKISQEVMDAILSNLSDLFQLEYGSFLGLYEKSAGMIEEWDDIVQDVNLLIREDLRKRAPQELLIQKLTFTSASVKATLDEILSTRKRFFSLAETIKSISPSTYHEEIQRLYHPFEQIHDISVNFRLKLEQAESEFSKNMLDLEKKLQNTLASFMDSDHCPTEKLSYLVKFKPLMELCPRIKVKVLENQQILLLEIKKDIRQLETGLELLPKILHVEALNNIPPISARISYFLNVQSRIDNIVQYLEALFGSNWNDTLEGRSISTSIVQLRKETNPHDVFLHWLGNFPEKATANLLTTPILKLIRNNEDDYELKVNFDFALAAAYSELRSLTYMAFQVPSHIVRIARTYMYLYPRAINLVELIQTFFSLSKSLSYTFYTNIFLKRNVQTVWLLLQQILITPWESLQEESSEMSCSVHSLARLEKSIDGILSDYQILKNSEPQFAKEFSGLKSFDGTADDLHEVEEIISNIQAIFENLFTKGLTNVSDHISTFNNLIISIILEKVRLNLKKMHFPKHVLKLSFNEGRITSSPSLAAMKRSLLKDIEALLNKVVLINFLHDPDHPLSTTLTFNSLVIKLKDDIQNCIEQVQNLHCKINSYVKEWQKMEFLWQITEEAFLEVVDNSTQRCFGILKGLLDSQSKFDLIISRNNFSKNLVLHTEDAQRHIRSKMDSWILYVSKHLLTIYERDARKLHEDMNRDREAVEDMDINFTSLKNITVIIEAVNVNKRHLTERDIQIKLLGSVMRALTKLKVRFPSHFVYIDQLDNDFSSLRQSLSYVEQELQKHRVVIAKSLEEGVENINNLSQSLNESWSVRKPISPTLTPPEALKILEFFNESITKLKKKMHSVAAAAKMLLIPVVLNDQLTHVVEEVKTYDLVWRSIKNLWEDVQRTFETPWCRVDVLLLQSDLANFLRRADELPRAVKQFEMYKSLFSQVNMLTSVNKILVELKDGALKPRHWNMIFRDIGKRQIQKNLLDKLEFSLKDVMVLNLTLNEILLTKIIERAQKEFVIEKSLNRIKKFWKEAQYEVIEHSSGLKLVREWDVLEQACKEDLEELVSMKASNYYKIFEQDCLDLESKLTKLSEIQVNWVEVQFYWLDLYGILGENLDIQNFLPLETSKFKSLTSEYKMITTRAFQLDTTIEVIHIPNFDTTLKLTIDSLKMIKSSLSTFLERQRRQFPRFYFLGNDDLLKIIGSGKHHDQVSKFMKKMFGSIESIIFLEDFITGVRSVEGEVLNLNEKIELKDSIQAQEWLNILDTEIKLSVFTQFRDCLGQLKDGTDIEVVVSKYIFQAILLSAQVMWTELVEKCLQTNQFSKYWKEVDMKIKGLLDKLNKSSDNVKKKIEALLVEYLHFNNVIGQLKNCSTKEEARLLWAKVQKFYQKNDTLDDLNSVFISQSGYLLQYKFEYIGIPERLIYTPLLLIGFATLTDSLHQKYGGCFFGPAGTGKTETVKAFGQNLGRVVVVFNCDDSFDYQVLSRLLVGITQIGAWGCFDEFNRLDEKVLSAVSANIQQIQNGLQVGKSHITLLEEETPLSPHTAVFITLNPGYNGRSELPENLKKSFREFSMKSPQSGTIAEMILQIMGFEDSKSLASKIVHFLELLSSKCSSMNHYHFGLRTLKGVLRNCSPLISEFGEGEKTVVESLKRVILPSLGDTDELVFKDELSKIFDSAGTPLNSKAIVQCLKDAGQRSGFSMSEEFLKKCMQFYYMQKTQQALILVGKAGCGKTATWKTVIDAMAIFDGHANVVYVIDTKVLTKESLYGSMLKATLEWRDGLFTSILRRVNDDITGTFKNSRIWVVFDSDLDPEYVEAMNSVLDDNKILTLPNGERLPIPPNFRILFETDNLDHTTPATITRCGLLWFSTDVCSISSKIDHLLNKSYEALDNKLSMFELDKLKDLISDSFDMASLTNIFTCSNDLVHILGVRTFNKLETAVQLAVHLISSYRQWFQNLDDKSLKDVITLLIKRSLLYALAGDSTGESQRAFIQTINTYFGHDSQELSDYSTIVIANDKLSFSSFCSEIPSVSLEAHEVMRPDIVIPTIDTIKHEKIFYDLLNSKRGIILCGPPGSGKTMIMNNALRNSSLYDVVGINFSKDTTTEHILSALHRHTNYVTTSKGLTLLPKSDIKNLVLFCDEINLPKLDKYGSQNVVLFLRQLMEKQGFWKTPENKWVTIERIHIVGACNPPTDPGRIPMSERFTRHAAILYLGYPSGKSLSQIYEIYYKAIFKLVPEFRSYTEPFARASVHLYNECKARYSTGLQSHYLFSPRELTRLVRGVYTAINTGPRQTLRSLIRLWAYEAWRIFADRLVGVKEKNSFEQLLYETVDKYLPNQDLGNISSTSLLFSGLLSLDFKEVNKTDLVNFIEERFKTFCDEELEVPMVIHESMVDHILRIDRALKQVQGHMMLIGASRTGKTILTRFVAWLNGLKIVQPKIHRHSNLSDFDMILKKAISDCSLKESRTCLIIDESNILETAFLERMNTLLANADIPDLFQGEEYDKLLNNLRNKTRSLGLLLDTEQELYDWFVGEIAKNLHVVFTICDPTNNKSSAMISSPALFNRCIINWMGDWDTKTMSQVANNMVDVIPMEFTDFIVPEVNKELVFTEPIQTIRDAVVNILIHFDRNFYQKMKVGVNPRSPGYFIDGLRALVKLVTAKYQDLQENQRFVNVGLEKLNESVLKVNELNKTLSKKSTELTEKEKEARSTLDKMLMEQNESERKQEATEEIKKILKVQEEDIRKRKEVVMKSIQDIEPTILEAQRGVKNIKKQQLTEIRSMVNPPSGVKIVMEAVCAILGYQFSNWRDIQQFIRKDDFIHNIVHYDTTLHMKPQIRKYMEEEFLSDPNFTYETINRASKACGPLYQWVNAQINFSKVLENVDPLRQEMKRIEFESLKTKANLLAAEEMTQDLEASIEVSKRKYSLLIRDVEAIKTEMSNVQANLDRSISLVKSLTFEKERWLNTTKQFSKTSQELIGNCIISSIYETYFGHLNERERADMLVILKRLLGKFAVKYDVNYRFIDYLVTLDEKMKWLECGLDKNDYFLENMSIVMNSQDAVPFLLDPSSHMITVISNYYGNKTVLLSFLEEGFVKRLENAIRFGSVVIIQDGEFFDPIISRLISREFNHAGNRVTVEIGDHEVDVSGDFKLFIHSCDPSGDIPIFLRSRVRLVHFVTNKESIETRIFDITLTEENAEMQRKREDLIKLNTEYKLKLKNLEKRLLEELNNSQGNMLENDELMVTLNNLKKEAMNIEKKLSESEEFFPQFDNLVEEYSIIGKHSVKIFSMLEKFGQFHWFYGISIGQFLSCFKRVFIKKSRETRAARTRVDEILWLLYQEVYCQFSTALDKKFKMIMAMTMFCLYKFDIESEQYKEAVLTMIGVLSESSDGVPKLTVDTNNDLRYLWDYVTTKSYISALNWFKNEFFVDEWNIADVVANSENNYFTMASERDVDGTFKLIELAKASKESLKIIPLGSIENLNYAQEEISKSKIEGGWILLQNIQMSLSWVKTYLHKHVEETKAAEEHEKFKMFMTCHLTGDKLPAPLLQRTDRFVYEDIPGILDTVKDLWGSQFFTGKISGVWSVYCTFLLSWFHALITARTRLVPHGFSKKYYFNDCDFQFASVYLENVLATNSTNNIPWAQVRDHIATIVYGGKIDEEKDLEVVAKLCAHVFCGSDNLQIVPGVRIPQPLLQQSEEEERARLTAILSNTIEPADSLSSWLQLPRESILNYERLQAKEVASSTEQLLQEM
Sequence of yeast dynein_(MOTOR)^MT-U (microtubule-unbound mutant of the motor domain) (budding yeast | T. thermophilus) (P34945 whole entry, change not shown, the tested form may be a part): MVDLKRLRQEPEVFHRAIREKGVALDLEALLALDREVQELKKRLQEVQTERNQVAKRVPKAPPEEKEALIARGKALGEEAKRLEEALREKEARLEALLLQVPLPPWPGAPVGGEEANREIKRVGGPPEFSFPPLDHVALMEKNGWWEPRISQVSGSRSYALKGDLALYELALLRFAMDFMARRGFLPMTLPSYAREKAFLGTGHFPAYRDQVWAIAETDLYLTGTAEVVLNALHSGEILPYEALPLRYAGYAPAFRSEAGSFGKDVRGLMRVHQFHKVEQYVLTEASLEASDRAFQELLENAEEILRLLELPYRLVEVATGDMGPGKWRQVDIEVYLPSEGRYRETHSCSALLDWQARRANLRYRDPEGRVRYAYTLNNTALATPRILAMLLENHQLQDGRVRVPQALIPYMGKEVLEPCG

Binder	stoichiometry N (mass photometry)	stoichiometry N (Pac1 dimer per dynein (MOTOR) monomer) [1]	N of the second species (∼890 kDa) (dynein monomers per Pac1 dimer) [2]	percent of particles with 1 LIS1 bound (3D classification) [3] [%]	percent of particles with 2 LIS1 bound (3D classification) [3] [%]	percent of particles with “1.5” LIS1 bound (3D classification) [3] [%]	stoichiometry N ([3]; scale: LIS1 WD40 beta-propellers per dynein motor)	binding result [4]	fold LIS1-binding affinity against dynein (MOTOR)^MT-B [5] [fold]	stoichiometry N (LIS1 dimer per dynein (MOTOR) monomer) [5]	stoichiometry N (LIS1 dimer per dynein (MOTOR) monomer) [6]
B1	2	1	2	–	–	–	–	–	–	–	–
B2	–	–	–	36.2	29.3	34.4	2	binds	2	1	1
